From PMC12576452

Biological target: HBV-S/preS1^16-42 antigen, untagged, produced in P. purpureum (Hepatitis B virus) (UniProt P03138)
Assay: SDS-PAGE under native, non-reducing (-DTT) and reducing (+DTT) conditions with western blot; lysates of freeze-dried algal biomass; bands of monomers, dimers and oligomers detected with anti-preS1 antibodies; disulfide-linked

## HBV-S/preS1^16-42 antigen, untagged, produced in P. purpureum (from UniProt P03138 16-42)
  stoichiometry N: 2
